In this assay the target is CD123 on the surface of EOL-1, KOPN-8 and MOLM-1 cells (UniProt P26951). The experiment in a line: cell-based or functional assay.

These results are taken from patent publication US20210085800A1.

Chain of CD123 on the surface of EOL-1, KOPN-8 and MOLM-1 cells (P26951 19-378 limits assumed): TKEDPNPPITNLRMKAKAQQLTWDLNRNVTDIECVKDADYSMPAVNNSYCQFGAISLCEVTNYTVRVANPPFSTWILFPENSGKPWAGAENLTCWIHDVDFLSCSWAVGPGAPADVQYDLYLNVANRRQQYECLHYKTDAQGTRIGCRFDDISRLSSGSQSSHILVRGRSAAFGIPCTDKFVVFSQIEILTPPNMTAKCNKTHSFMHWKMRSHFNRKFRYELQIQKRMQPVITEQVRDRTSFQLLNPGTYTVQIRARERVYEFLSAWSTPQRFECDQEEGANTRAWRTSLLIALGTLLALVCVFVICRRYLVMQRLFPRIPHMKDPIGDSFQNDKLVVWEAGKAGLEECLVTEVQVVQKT

B1: huCD123-6Rv1.1-D2 (antibody, from a related filing, V domains shown)
VH: QFQLVQSGAEVVKPGASVKMSCKASGYTFTSSIMHWMKQKPGQGLEWIGYIKPYNDGTKYNQKFQGKATLTSDKSSSTANMELNSLTSEDSAVYYCAREGGNDYYDTMDYWGQGTSVTVSS
VL: DIQMTQSPSSMSASVGERVTITCRASQDINSYLSWFQQKPGKSPKTLIYRVNRLVDGVPSRFSGSGSGQDYSLTISSLEPEDMGIYYCLQYDAFPYTFGQGTKLEIKR
Regarding B1, the IC50, in vitro cytotoxicity assay (WST-8), EOL-1 cells was found to be 2 pM; the IC50, in vitro cytotoxicity assay (WST-8), KOPN-8 cells amounted to 5 pM; the IC50, in vitro cytotoxicity assay (WST-8), MOLM-1 cells worked out at 20 pM; the fold loss of cytotoxicity when CD123 is blocked by chCD123-6 amounted to 100 fold.
